How the values were obtained:
[1] = target: insulin B-chain (bovine pancreas insulin reduced with DTT) (bovine, UniProt P01317 25-54); assay: cell-based or functional assay
[2] = target: the molecule itself; assay: SEC; size-exclusion HPLC, Phenomenex BioSep SEC S4000 column; mobile phase 50 mM sodium phosphate buffer, pH 7.2; 10 µL of a 10 mg/mL sample, 0.5 mL/min; calibrated with mass standards; self-association into oligomers

Chain of insulin B-chain (bovine pancreas insulin reduced with DTT) (P01317 25-54): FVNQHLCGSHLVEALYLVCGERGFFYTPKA

Binder	decrease in chaperone assay: percentage protection against DTT-induced precipitation of the insulin B-chain (light scattering at 340 nm, 37°C, 1.0:0.14 molar ratio of insulin:αB-crystallin, after 90 …) [1] [%]	binding result [2]
I159A/I161A αB-crystallin (natural protein, human, UniProt P02511 1-175, looked up, αB-crystallin, human, SwissProt P02511, with I159A and I161A (I-X-I motif); ESI-MS mass 20074.4 Da; The measured mass fits the whole untagged protein with both changes; also called I159A/I161A mutant; source: dialyzed against 50 mM phosphate buffer) MDIAIHHPWIRRPFFPFHSPSRLFDQFFGEHLLESDLFPTSTSLSPFYLRPPSFLRAPSWFDTGLSEMRLEKDRFSVNLDVKHFSPEELKVKVLGDVIEVHGKHEERQDEHGFISREFHRKYRIPADVDPLTITSSLSSDGVLTVNGPRKQVSGPERTAPATREEKPAVTAAPKK	68	binds
K175L αB-crystallin (natural protein, human, UniProt P02511 1-175, looked up, αB-crystallin, human, SwissProt P02511, with K175L; ESI-MS mass 20143.9 Da; The measured mass fits the whole untagged protein with the change; also called K175L mutant) MDIAIHHPWIRRPFFPFHSPSRLFDQFFGEHLLESDLFPTSTSLSPFYLRPPSFLRAPSWFDTGLSEMRLEKDRFSVNLDVKHFSPEELKVKVLGDVIEVHGKHEERQDEHGFISREFHRKYRIPADVDPLTITSSLSSDGVLTVNGPRKQVSGPERTIPITREEKPAVTAAPKL	–	binds
Wild-type human αB-crystallin (natural protein, UniProt P02511 1-175, looked up, αB-crystallin, human, SwissProt P02511; Polydisperse oligomer; also called αB-WT; wild-type αB-crystallin) MDIAIHHPWIRRPFFPFHSPSRLFDQFFGEHLLESDLFPTSTSLSPFYLRPPSFLRAPSWFDTGLSEMRLEKDRFSVNLDVKHFSPEELKVKVLGDVIEVHGKHEERQDEHGFISREFHRKYRIPADVDPLTITSSLSSDGVLTVNGPRKQVSGPERTIPITREEKPAVTAAPKK	–	binds
E164A/E165A αB-crystallin (natural protein, human, UniProt P02511 1-175, looked up, αB-crystallin, human, SwissProt P02511, with E164A and E165A; ESI-MS mass 20043.0 Da; The measured mass fits the whole untagged protein with both changes; also called E164A/E165A mutant) MDIAIHHPWIRRPFFPFHSPSRLFDQFFGEHLLESDLFPTSTSLSPFYLRPPSFLRAPSWFDTGLSEMRLEKDRFSVNLDVKHFSPEELKVKVLGDVIEVHGKHEERQDEHGFISREFHRKYRIPADVDPLTITSSLSSDGVLTVNGPRKQVSGPERTIPITRAAKPAVTAAPKK	–	binds
K174A/K175A αB-crystallin (natural protein, human, UniProt P02511 1-175, looked up, αB-crystallin, human, SwissProt P02511, with K174A and K175A; ESI-MS mass 20044.8 Da; The measured mass fits the whole untagged protein with both lysines changed to alanine, although the printed primer reads GCG AAG; also called K174A/K175A mutant) MDIAIHHPWIRRPFFPFHSPSRLFDQFFGEHLLESDLFPTSTSLSPFYLRPPSFLRAPSWFDTGLSEMRLEKDRFSVNLDVKHFSPEELKVKVLGDVIEVHGKHEERQDEHGFISREFHRKYRIPADVDPLTITSSLSSDGVLTVNGPRKQVSGPERTIPITREEKPAVTAAPAA	–	binds

Reference: PMC2002509, “Site-Directed Mutations in the C-Terminal Extension of Human αB-Crystallin Affect Chaperone Function and Block Amyloid Fibril Formation” (PLoS ONE, 2007)
